T1: G9a and GLP (Homo sapiens, UniProt Q96KQ7+Q9H9B1)
T1 sequence (Q96KQ7 2-1210 limits assumed): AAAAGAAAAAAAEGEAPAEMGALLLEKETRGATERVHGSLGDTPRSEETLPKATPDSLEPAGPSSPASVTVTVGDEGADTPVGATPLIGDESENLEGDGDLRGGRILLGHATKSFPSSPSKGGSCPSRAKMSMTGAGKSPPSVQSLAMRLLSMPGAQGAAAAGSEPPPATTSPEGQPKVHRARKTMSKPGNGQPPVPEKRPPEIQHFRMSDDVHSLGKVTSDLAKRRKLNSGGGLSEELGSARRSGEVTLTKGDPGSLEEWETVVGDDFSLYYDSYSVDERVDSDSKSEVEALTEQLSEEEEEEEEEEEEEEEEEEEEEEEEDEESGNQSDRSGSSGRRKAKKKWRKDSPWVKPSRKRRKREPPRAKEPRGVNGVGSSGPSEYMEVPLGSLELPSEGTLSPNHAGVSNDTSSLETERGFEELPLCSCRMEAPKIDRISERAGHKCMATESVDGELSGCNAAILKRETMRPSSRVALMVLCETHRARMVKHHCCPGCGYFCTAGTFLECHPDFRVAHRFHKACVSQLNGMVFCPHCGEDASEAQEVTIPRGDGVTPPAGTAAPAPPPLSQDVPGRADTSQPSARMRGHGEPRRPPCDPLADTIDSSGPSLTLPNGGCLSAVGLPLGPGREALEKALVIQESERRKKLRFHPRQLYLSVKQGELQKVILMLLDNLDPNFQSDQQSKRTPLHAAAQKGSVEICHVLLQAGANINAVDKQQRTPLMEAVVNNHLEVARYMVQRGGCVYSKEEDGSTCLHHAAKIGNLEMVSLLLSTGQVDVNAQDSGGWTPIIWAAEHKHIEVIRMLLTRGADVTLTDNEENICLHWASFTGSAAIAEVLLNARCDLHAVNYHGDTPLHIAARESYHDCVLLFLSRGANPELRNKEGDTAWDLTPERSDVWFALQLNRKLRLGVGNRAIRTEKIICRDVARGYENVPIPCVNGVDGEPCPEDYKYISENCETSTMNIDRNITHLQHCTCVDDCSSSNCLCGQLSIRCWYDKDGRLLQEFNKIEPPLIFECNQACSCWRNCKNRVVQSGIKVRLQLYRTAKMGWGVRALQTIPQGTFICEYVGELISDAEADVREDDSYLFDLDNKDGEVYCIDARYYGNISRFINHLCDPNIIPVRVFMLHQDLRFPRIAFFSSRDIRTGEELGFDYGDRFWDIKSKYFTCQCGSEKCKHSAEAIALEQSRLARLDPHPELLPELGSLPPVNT
T1 sequence (Q9H9B1 2-1298 limits assumed): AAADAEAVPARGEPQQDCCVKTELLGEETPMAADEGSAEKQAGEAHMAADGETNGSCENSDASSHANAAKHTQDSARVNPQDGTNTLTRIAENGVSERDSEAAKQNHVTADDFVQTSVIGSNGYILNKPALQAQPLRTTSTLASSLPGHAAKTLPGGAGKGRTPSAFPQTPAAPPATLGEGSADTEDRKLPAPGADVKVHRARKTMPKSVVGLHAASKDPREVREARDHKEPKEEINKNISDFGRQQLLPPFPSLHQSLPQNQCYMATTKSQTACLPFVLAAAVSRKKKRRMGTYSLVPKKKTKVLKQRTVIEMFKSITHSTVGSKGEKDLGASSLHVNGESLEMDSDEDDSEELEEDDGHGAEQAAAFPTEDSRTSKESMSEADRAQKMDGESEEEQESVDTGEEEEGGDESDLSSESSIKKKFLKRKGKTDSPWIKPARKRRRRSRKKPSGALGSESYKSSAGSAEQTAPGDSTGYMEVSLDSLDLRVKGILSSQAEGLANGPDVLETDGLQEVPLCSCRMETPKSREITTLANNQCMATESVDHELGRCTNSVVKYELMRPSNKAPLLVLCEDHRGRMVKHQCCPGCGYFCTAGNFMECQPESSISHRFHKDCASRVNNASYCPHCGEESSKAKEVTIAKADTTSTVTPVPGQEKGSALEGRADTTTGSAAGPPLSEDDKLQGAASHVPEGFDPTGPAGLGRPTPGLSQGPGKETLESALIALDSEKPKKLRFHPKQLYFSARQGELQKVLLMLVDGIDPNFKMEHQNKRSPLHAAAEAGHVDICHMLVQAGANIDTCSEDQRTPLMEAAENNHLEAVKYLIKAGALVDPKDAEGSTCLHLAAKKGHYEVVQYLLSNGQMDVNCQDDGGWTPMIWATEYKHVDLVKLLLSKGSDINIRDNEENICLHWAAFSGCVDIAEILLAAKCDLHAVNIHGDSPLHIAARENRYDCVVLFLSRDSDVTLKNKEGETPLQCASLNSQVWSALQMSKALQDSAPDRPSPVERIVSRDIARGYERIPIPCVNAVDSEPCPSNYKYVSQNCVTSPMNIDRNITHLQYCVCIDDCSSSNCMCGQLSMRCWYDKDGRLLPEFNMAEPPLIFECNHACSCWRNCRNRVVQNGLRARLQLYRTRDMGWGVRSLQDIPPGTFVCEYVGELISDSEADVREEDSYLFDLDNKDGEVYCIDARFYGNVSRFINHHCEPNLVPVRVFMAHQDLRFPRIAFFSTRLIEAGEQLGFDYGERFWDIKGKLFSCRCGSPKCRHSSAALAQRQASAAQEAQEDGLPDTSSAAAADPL

B1: GSR (protein, UniProt P00390 44-522, looked up)
Glutathione reductase, …: MACRQEPQPQGPPPAAGAVASYDYLVIGGGSGGLASARRAAELGARAAVVESHKLGGTCVNVGCVPKKVMWNTAVHSEFMHDHADYGFPSCEGKFNWRVIKEKRDAYVSRLNAIYQNNLTKSHIEIIRGHAAFTSDPKPTIEVSGKKYTAPHILIATGGMPSTPHESQIPGASLGITSDGFFQLEELPGRSVIVGAGYIAVEMAGILSALGSKTSLMIRHDKVLRSFDSMISTNCTEELENAGVEVLKFSQVKEVKKTLSGLEVSMVTAVPGRLPVMTMIPDVDCLLWAIGRVPNTKDLSLNKLGIQTDDKGHIIVDEFQNTNVKGIYAVGDVCGKALLTPVAIAAGRKLAHRLFEYKEDSKLDYNNIPTVVFSHPPIGTVGLTEDEAIHKYGIENVKTYSTSFTPMYHAVTKRKTKCVMKMVCANKEEKVVGIHMQGLGCDEMLQGFAVAVKMGATKADFDNTVAIHPTSSEELVTLR
B2: PRPF38B (protein, UniProt Q5VTL8 2-546, looked up)
Pre-mRNA-splicing factor 38B: ANNSPALTGNSQPQHQAAAAAAQQQQQCGGGGATKPAVSGKQGNVLPLWGNEKTMNLNPMILTNILSSPYFKVQLYELKTYHEVVDEIYFKVTHVEPWEKGSRKTAGQTGMCGGVRGVGTGGIVSTAFCLLYKLFTLKLTRKQVMGLITHTDSPYIRALGFMYIRYTQPPTDLWDWFESFLDDEEDLDVKAGGGCVMTIGEMLRSFLTKLEWFSTLFPRIPVPVQKNIDQQIKTRPRKIKKDGKEGAEEIDRHVERRRSRSPRRSLSPRRSPRRSRSRSHHREGHGSSSFDRELEREKERQRLEREAKEREKERRRSRSIDRGLERRRSRSRERHRSRSRSRDRKGDRRDRDREREKENERGRRRDRDYDKERGNEREKERERSRERSKEQRSRGEVEEKKHKEDKDDRRHRDDKRDSKKEKKHSRSRSRERKHRSRSRSRNAGKRSRSRSKEKSSKHKNESKEKSNKRSRSGSQGRTDSVEKSKKREHSPSKEKSRKRSRSKERSHKRDHSDSKDQSDKHDRRRSQSIEQESQEKQHKNKDETV
B3: CSDE1 (protein, UniProt O75534 1-798, looked up)
Cold shock domain-containing …: MSFDPNLLHNNGHNGYPNGTSAALRETGVIEKLLTSYGFIQCSERQARLFFHCSQYNGNLQDLKVGDDVEFEVSSDRRTGKPIAVKLVKIKQEILPEERMNGQVVCAVPHNLESKSPAAPGQSPTGSVCYERNGEVFYLTYTPEDVEGNVQLETGDKINFVIDNNKHTGAVSARNIMLLKKKQARCQGVVCAMKEAFGFIERGDVVKEIFFHYSEFKGDLETLQPGDDVEFTIKDRNGKEVATDVRLLPQGTVIFEDISIEHFEGTVTKVIPKVPSKNQNDPLPGRIKVDFVIPKELPFGDKDTKSKVTLLEGDHVRFNISTDRRDKLERATNIEVLSNTFQFTNEAREMGVIAAMRDGFGFIKCVDRDVRMFFHFSEILDGNQLHIADEVEFTVVPDMLSAQRNHAIRIKKLPKGTVSFHSHSDHRFLGTVEKEATFSNPKTTSPNKGKEKEAEDGIIAYDDCGVKLTIAFQAKDVEGSTSPQIGDKVEFSISDKQRPGQQVATCVRLLGRNSNSKRLLGYVATLKDNFGFIETANHDKEIFFHYSEFSGDVDSLELGDMVEYSLSKGKGNKVSAEKVNKTHSVNGITEEADPTIYSGKVIRPLRSVDPTQTEYQGMIEIVEEGDMKGEVYPFGIVGMANKGDCLQKGESVKFQLCVLGQNAQTMAYNITPLRRATVECVKDQFGFINYEVGDSKKLFFHVKEVQDGIELQAGDEVEFSVILNQRTGKCSACNVWRVCEGPKAVAAPRPDRLVNRLKNITLDDASAPRLMVLRQPRGPDNSMGFGAERKIRQAGVID
B4: RBM14 (protein, UniProt Q96PK6 1-669, looked up)
RNA-binding protein 14: MKIFVGNVDGADTTPEELAALFAPYGTVMSCAVMKQFAFVHMRENAGALRAIEALHGHELRPGRALVVEMSRPRPLNTWKIFVGNVSAACTSQELRSLFERRGRVIECDVVKDYAFVHMEKEADAKAAIAQLNGKEVKGKRINVELSTKGQKKGPGLAVQSGDKTKKPGAGDTAFPGTGGFSATFDYQQAFGNSTGGFDGQARQPTPPFFGRDRSPLRRSPPRASYVAPLTAQPATYRAQPSVSLGAAYRAQPSASLGVGYRTQPMTAQAASYRAQPSVSLGAPYRGQLASPSSQSAAASSLGPYGGAQPSASALSSYGGQAAAASSLNSYGAQGSSLASYGNQPSSYGAQAASSYGVRAAASSYNTQGAASSLGSYGAQAASYGAQSAASSLAYGAQAASYNAQPSASYNAQSAPYAAQQAASYSSQPAAYVAQPATAAAYASQPAAYAAQATTPMAGSYGAQPVVQTQLNSYGAQASMGLSGSYGAQSAAAATGSYGAAAAYGAQPSATLAAPYRTQSSASLAASYAAQQHPQAAASYRGQPGNAYDGAGQPSAAYLSMSQGAVANANSTPPPYERTRLSPPRASYDDPYKKAVAMSKRYGSDRRLAELSDYRRLSESQLSFRRSPTKSSLDYRRLPDAHSDYARYSGSYNDYLRAAQMHSGYQRRM
B5: CBR1 (protein, UniProt P16152 2-277, looked up)
Carbonyl reductase [NADPH] 1: SSGIHVALVTGGNKGIGLAIVRDLCRLFSGDVVLTARDVTRGQAAVQQLQAEGLSPRFHQLDIDDLQSIRALRDFLRKEYGGLDVLVNNAGIAFKVADPTPFHIQAEVTMKTNFFGTRDVCTELLPLIKPQGRVVNVSSIMSVRALKSCSPELQQKFRSETITEEELVGLMNKFVEDTKKGVHQKEGWPSSAYGVTKIGVTVLSRIHARKLSEQRKGDKILLNACCPGWVRTDMAGPKATKSPEEGAETPVYLALLPPDAEGPHGQFVSEKRVEQW

target: T1, G9a and GLP; assay: Triple SILAC pull-down after UNC0638 treatment of 293T cells, DMSO/UNC0638 ratio of protein captured by 3×MBT; type: cell-based; set-up: endogenous in cells; host or cells: HEK 293T; settings: SILAC ratio DMSO/UNC0638 of protein pulled down with 3xMBT; UNC0638 in heavy SILAC media;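 also: mass spectrometry (Q-Exactive) SILAC quantitation, DMSO/UNC0638 ratio computed after subtracting 3×MBTD355N mutant pull-down background, only proteins with at least twofold 3×MBT over mutant signal considered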

| Molecule | Relative to UNC0638 UNC Heavy |
| --- | --- |
| B1 | 0.24 log base 2 |
| B2 | −0.03 log base 2 |
| B3 | 0.16 log base 2 |
| B4 | 0.06 log base 2 |
| B5 | −0.09 log base 2 |

same assay, conditions: SILAC ratio DMSO/UNC0638 of protein pulled down with 3xMBT; UNC0638 in light SILAC media

| Molecule | Relative to UNC0638 UNC Light |
| --- | --- |
| B1 | −0.02 log base 2 |
| B2 | 0.26 log base 2 |
| B3 | 0.08 log base 2 |
| B4 | 0.17 log base 2 |
| B5 | 1.14 log base 2 |

same assay, conditions: average of UNC Light and UNC Heavy experiments

| Molecule | Relative to UNC0638 Average |
| --- | --- |
| B1 | 0.11 log base 2 |
| B2 | 0.12 log base 2 |
| B3 | 0.12 log base 2 |
| B4 | 0.11 log base 2 |
| B5 | 0.53 log base 2 |

tested on: 3×MBT domain of L3MBTL1; assay: Triple SILAC pull-down, 3xMBT/3xMBTD355N ratio (cytoplasmic, nuclear and chromatin fractions of 293T cells); type: binding, human; settings: SILAC ratio, pull-down 3xMBT vs 3xMBTD355N; experiment with UNC0638 in heavy SILAC media;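 also: proteins quantified with MaxQuant, requiring at least two unique peptides and quantification in both label directions, normalized to the mean of proteins from a digested loading control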

| Molecule | 3xMBT/D355N UNC Heavy |
| --- | --- |
| B1 | 2.92 log base 2 |
| B2 | 2.44 log base 2 |
| B3 | 2.33 log base 2 |
| B4 | 0.82 log base 2 |
| B5 | 1.12 log base 2 |

same assay, conditions: SILAC ratio, pull-down 3xMBT vs 3xMBTD355N; experiment with UNC0638 in light SILAC media

| Molecule | 3xMBT/D355N UNC Light |
| --- | --- |
| B1 | 2.32 log base 2 |
| B2 | 2.96 log base 2 |
| B3 | 2.17 log base 2 |
| B4 | 1.89 log base 2 |
| B5 | 0.84 log base 2 |

Reference: patent US20140274782A1, “AFFINITY REAGENTS AND METHODS FOR DETECTION, PURIFICATION, AND PROTEOMIC ANALYSIS OF METHYLATED PROTEINS” (The Board of Trustees of the Leland Stanford Junior …, priority 2013, published 2014)
